B1: ScAA10C (Streptomyces coelicolor A3(2)) (protein)
chain: HGVAMMPGSRTYLCQLDAKTGTGALDPTNPACQAALDQSGATALYNWFAVLDSNAGGRGAGYVPDGTLCSAGDRSPYDFSAYNAARSDWPRTHLTSGATIPVEYSNWAAHPGDFRVYLTKPGWSPTSELGWDDLELIQTVTNPPQQGSPGTDGGHYYWDLALPSGRSGDALIFMQWVRSDSQENFFSCSDVVFDGGNGEVTGIRGSGSTPDPDPTPTPTDPTTPPTHTGSCMAVYSVENSWSGGFQGSVEVMNHGTEPLNGWAVQWQPGGGTTLGGVWNGSLTSGSDGTVTVRNVDHNRVVPPDGSVTFGFTATSTGNDFPVDSIGCVAP
notes: copper-saturated; eps280 75,775; called ScAA10A by slip in places
B2: NcAA9C (Neurospora crassa OR74A) (protein)
chain: HTIFQKVSVNGADQGQLKGIRAPANNNPVTDVMSSDIICNAVTMKDSNVLTVPAGAKVGHFWGHEIGGAAGPNDADNPIAASHKGPIMVYLAKVDNAATTGTSGLKWFKVAEAGLSNGKWAVDDLIANNGWSYFDMPTCIAPGQYLMRAELIALHNAGSQAGAQFYIGCAQINVTGGGSASPSNTVSFPGAYSASDPGILINIYGGSGKTDNGGKPYQIPGPALFTCPAGGSGGSSPAPATTASTPKPTSASAPKPVSTTASTPKPTNGSGSGTGAAHSTKCGGSKPAATTKASNPQPTNGGNSAVRAAALYGQCGGKGWTGPTSCASGTCKFSNDWYSQCLP
notes: N-terminal His not methylated; copper-saturated; eps280 46,910

Assays:
purified protein [1] = substrate: O=C1O[C@H]([C@@H](O)CO)C(O)=C1O; assay: purified protein; type: biochemical, Streptomyces coelicolor; details: H2O2 co-substrate (true Km from kcat app vs [AscA]), 50 mM sodium acetate pH 5.0, 25 °C, no polysaccharide, ping-pong
purified protein [2] = substrate: O=C1O[C@H]([C@@H](O)CO)C(O)=C1O; assay: purified protein; type: biochemical, Neurospora crassa; details: H2O2 co-substrate (true Km from kcat app vs [AscA]), 50 mM sodium acetate pH 5.0, 25 °C, no polysaccharide, ping-pong

Protein | Km (purified protein [1]) | kcat (purified protein [1]) | kcat/Km (purified protein [1]) | Km (purified protein [2]) | kcat (purified protein [2]) | kcat/Km (purified protein [2])
B1 | 25 ± 2 µM | 0.64 ± 0.02 s⁻¹ | 21000 ± 2000 M⁻¹ s⁻¹ |  |  | 
B2 |  |  |  | 145 ± 4 µM | 5.3 ± 0.1 s⁻¹ | 36000 ± 1000 M⁻¹ s⁻¹

Source: article PMC10458328, “The “life-span” of lytic polysaccharide monooxygenases (LPMOs) correlates to the number of turnovers in the reductant peroxidase reaction” (The Journal of Biological Chemistry, 2023)
